{"source": "patent US20200239597A1", "about": "“AN ANTI-APOPTOTIC FUNCTION OF PKM2 AND INTRACELLULARLY EXPRESSED SCFV ANTIBODIES” (La Jolla Institute for Allergy and Immunology, priority 2017, published 2020)", "molecules": {"B1": {"name": "IB5: intracellularly expressed single-chain antibody (scFv) specific for PKM2, SEQ ID NO: 2; also made as monovalent recombinant scFv in E. coli (protein)", "scFv": "MAQVQLVETGPGLVKPSETLSLRCTVSGGSFDNYYWNWIRQPPGKGLEYIGYVFPSTGATNYNPSLGSRVTISLDTSKNQFSLTLTSVTTADTAIYYCVRSGHDLWTGSTWFDPWGQWTTVTVSSGGGGSGGGGSGGGGSEIVLTQSPGTLSLSPGERATLSCRASQSVSSSYLAWYQQKPGQAPRLLIYGASSRATGIPDRFSGSGSGTDFTLTISRLEPEDIAVYYCQQRSNWPRTFGQGTKVEIKRGLGGLASVDYKDDDDK", "modifications": "artificial intrabody clone 5", "notes": "also made as monovalent recombinant scFv in E. coli"}}, "key": {"PKM2 (K270M) [1]": {"molecular_target": "T1, PKM2 (K270M) (Homo sapiens, UniProt P14618, K270M)", "T1 construct": "His (N); made in house; host or cells: Escherichia coli BL21(DE3)", "T1 sequence (P14618 whole entry K270M)": "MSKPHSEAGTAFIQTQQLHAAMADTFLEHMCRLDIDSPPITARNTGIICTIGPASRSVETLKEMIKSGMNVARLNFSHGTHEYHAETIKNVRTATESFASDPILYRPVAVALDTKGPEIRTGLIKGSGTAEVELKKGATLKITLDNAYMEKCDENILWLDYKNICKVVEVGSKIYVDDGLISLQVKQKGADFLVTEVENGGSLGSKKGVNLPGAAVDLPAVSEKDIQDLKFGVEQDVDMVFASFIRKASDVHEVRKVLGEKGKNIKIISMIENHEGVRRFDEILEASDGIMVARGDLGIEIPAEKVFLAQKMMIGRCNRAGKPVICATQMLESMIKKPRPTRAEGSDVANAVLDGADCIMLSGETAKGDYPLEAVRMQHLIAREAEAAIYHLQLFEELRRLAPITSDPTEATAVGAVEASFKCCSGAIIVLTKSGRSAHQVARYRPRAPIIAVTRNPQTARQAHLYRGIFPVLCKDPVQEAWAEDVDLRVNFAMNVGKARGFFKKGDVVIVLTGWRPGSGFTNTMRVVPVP", "assay": "Pyruvate kinase assay, PKM2 (K270M)", "format": "biochemical", "conditions": "high concentrations of scFv 5", "protocol": "(§1) Activity was measured by Kinase-Glo® Plus Luminescent Kinase Assay kit (promega), using ADP and PEP as substrates), with PKM2 at 50 nM. Shown are values with the basal activity of PKM2 alone subtracted out.\n(§2) Pyruvate kinase activity was measured by using Kinase-Glo® Plus Luminescent Kinase Assay kit (Promega). 50-100 nM of purified WT or mutant PKM2 was added in 100 μl assay buffer containing 50 mM Tris pH7.5, 100 mM KCl, 10 mM MgCl2, 200 μM PEP, 200 μM ADP, and 3% DMSO. After a 15-min incubation, Kinase-Glo Plus™ reagent (Promega Corporation, Madison, Wis., USA) was added, according to the manufacturer's instructions. In some cases, 0-40 μM fructose 1,6-bisphosphate (FBP) and 0-150 nM scFv 5 were added."}, "PKM2 (K270M) [2]": {"molecular_target": "T1, PKM2 (K270M)", "assay": "Blue native gel electrophoresis, PKM2 (K270M)", "format": "binding", "conditions": "not shown", "excerpt": "To begin to define the aspects of PKM2 function required for the IB5-induced anti-apoptotic effect, the present inventors reconstituted PKM2-null MEFs with WT or mutant forms of PKM2. The present inventors first analyzed the K270M mutation, reported to be catalytically dead (Bollenbach et al., 1999; Dombrauckas et al., 2005; Luo et al., 2011)."}, "MEFs": {"system": "MEFs", "assay": "BimS-resistant clonogenic survival in MEFs", "format": "cell-based, mouse", "protocol": "The plates were fixed and stained with crystal violet after 1 week and the total area of colonies were counted as above. The SD and P value was calculated from 6 individual plates.\nWT, Mfn1- or Mfn2-deficient MEFs were infected or not with IB5 lentivirus, then 1×10^5 cells were plated and transfected with BimS expression plasmid. The plates were fixed and stained with crystal violet after 1 week and the total areas of colonies were measured as above. Mean, SD and P values were calculated from 5 individual plates.\n(§3) Cell viability was measured with a Countess™ Automated Cell Counter (Invitrogen) using trypan blue. For the clonogenic survival assay, 293T or MEFs cells were seeded in 6-well plates at 1×10^5 cells/well in a 2-ml volume, transfected with BimS cDNA and incubated for 24 h. Afterwards, the medium was replaced and the cells cultured for 3-4 days. Thereafter, the plates were rinsed with PBS and fixed and stained with a solution containing crystal violet (0.5% w/v) and glutaraldehyde (6% v/v) as described (Franken et al., 2006)."}, "MDA-MB231-LM2": {"system": "MDA-MB231-LM2", "assay": "Clonogenic rescue from BimS-induced death, MDA-MB231-LM2", "format": "cell-based", "conditions": "lung metastatic derivative MDA-MB231-LM2", "protocol": "Control or IB5-expressing cells were transfected with BimS cDNA. The plates were fixed and stained with crystal violet after 12 days and the total areas of colonies were measured. Mean, SD and P values were calculated from 3 individual plates."}, "293T cells": {"system": "293T cells", "assay": "Clonogenic survival assay after BimS transfection, 293T cells", "format": "cell-based, human", "conditions": "293T cells", "protocol": "Control 293T or IB5-expressing cells were incubated with or without 27 µg/ml TEPP-46 for 3 h, then transfected with BimS cDNA in a further 24-h incubation also including TEPP-46 or vehicle. The plates were fixed and stained with crystal violet after 1 week. The total area of colonies (a measure of the total mass of proliferating cells) formed in each well from were quantified using ImageJ software; mean±SEM are shown from 3 independent experiments.\nas §3"}, "[3]": {"system": "PKM2-deficient MEFs reconstituted with WT PKM2", "assay": "Mitochondrial length by fluorescence microscopy (Tom20 staining)", "format": "cell-based, mouse", "conditions": "PKM2-null MEFs reconstituted with WT PKM2", "excerpt": "IB5 expression with WT PKM2 increased mitochondrial length, and PKM2 (K422R) expression increased mitochondrial length even in the absence of IB5. PKM2-deficient MEFs reconstituted with WT PKIM2 or PKM2(K422R) cDNA, were infected or not with IB5 lentivirus. […] Mitochondria were visualized by fluorescence microscopy after staining with Tom20 antibodies. Representative confocal images are shown.\nCells were analyzed 3 d after transfection with the indicated cDNA constructs (mean±s.e.m. of 3-5 experiments of 120-200 random selected cells."}, "Bax": {"molecular_target": "Bax (Homo sapiens, UniProt Q07812)", "sequence (Q07812 whole entry, species assumed)": "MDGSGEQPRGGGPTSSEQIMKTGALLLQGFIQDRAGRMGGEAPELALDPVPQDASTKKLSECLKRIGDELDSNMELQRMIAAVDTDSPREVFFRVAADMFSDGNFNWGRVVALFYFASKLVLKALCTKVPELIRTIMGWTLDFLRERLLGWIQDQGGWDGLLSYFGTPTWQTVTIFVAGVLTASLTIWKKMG", "assay": "In vitro Bax/cBid membrane permeabilization in liposomes or Xenopus egg mitochondrial outer membrane vesicles", "format": "biochemical", "conditions": "recombinant scFv 5 added together with PKM2; not shown", "excerpt": "Because no cytoprotective effect was seen when PKM2 was stimulated with allosteric activator TEPP-46 alone, or when PKM2 was replaced with the constitutively active PKIM1 (FIG. 3), the present inventors conclude that increased pyruvate kinase activity per se was insufficient for the cell survival effect induced by IB5. To test whether IB5:PIKM2 complexes could affect pro-apoptotic Bcl-2 family proteins directly, the present inventors used their own previously well-validated in vitro systems that recapitulate Bcl-2 family protein function in membranes. Here, recombinant Bax and cleaved Bid (cBid) proteins are incubated with protein-free liposomes or with isolated Xenopus egg mitochondrial outer membrane vesicles. Bax then becomes inserted into the membranes and forms large pores that recapitulate MOMP as it occurs within cells (Gillies et al., 2015; Kuwana et al., 2002; Kuwana et al., 2016; Schafer et al., 2009). The present inventors observed no effect of adding recombinant scFv 5 and PKIVI2 to these systems (not shown). Thus, the inventors saw no evidence that PKM2 acts directly on the process of Bax/Bak-mediated MOMP."}, "WT PKM2": {"molecular_target": "T2, WT PKM2 (Homo sapiens, UniProt P14618)", "T2 construct": "His (N); made in house; host or cells: Escherichia coli BL21(DE3)", "assay": "Pyruvate kinase assay (Kinase-Glo Plus), WT PKM2", "format": "biochemical", "conditions": "PKM2 at 50 nM; ADP and PEP as substrates", "protocol": "as §1, §2"}, "[4]": {"system": "mouse embryonic fibroblasts (MEFs)", "assay": "BimS-induced death in MEFs (WT, PKM2-deficient, reconstituted), surviving cells counted", "format": "cell-based", "protocol": "Wild type (WT) mouse embryonic fibroblasts (MEFs), PKM2-deficient MEFs, or PKM2-deficient MEFs reconstituted with WT or mutant PKIM2 cDNA, were infected or not with IB5, then later transfected with BimS expression plasmid. Surviving cells were counted 48 h afterwards.\nas §3"}}, "data": [{"molecule": "B1", "values": [{"measurement": "catalytic activity of PKM2 (K270M)", "setting": "PKM2 (K270M) [1]", "result": "increased the catalytic activity"}, {"measurement": "stable tetramer formation of PKM2 (K270M)", "setting": "PKM2 (K270M) [2]", "result": "prevented the protein from forming stable tetramers"}, {"measurement": "rescue from BimS-induced clonogenic death", "setting": "MEFs; Mfn1-deficient MEFs", "result": "failed to rescue"}, {"measurement": "rescue from BimS-induced death (clonogenic)", "setting": "MEFs; Mfn2-null MEFs", "result": "rescued"}, {"measurement": "rescue from BimS-induced death (clonogenic)", "setting": "MEFs; WT MEFs", "result": "rescued"}, {"measurement": "clonogenic survival", "setting": "MEFs; early passage MEFs with PKM2 (K422R)", "result": "enhanced clonogenic survival"}, {"measurement": "clonogenic survival", "setting": "MEFs; later-passage MEFs with PKM2 (K422R)", "result": "further enhanced"}, {"measurement": "rescue from BimS-induced cell death", "setting": "MDA-MB231-LM2", "result": "failed to rescue"}, {"measurement": "clonogenic survival despite BimS expression", "setting": "293T cells", "result": "produced clonogenic survival"}, {"measurement": "average mitochondrial length", "setting": "[3]", "result": "increased the average mitochondrial length"}, {"measurement": "effect on Bax-mediated membrane pore formation (MOMP) in vitro", "setting": "Bax", "result": "no effect"}, {"measurement": "glycolytic (pyruvate kinase) activity of WT PKM2", "setting": "WT PKM2", "result": "stimulated PKM2's glycolytic activity in a concentration-dependent manner"}, {"measurement": "rescue from BimS-induced killing", "setting": "[4]; PKM2-deficient MEFs", "result": "entirely abrogated"}, {"measurement": "cell rescue after reconstitution", "setting": "[4]; PKM2-null MEFs reconstituted with PKM2 (K270M)", "result": "failed to support IB5-induced cell rescue"}, {"measurement": "cytoprotective ability after reconstitution", "setting": "[4]; PKM2-null MEFs reconstituted with WT PKM2 cDNA", "result": "restored the cytoprotective ability of IB5"}, {"measurement": "rescue from BimS-induced killing", "setting": "[4]; WT MEFs", "result": "rescued a percentage of the WT cells"}, {"measurement": "numbers of viable cells", "setting": "[4]; early-passage MEFs reconstituted with PKM2 (K422R)", "result": "further increased viability"}]}]}
